The source of these data is patent publication US20070036793A1, “Methods for use of an lkb1/strad7mo25 complex” (priority 2003, published 2007).

In this experiment the target is T1, LKB1 (Mus musculus, UniProt Q9WTK7).
T1 construct: Constructs expressing the full length wild type and kinase dead mouse LKB1 have been described previously; made in house; host or cells: 293 cells, transiently transfected
T1 sequence (Q9WTK7 1-433 limits assumed): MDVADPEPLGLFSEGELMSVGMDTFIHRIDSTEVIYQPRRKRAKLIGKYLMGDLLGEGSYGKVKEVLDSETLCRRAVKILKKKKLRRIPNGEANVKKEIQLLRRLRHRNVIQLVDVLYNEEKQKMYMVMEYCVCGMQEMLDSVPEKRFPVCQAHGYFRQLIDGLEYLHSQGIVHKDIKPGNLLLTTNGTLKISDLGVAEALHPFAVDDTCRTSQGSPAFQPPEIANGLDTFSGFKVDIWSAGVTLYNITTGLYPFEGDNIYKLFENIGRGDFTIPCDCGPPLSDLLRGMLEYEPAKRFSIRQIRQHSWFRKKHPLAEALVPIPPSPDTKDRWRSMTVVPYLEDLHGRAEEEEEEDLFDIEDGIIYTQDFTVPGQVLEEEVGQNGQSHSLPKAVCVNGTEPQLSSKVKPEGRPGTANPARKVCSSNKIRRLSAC
T1 sequence (Q7RTN6 1-431 partner): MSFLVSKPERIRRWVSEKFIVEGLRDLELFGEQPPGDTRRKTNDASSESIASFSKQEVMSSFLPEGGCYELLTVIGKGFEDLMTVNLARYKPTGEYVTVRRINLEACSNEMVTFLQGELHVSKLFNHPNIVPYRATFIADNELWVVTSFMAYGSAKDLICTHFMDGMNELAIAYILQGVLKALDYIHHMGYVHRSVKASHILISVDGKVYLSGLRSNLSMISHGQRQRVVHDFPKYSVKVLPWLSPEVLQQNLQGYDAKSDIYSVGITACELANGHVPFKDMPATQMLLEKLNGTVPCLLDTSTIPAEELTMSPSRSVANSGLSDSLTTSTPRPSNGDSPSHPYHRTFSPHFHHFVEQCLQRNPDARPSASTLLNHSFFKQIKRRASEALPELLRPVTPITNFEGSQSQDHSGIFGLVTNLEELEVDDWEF
T1 sequence (Q9Y376 1-341 partner): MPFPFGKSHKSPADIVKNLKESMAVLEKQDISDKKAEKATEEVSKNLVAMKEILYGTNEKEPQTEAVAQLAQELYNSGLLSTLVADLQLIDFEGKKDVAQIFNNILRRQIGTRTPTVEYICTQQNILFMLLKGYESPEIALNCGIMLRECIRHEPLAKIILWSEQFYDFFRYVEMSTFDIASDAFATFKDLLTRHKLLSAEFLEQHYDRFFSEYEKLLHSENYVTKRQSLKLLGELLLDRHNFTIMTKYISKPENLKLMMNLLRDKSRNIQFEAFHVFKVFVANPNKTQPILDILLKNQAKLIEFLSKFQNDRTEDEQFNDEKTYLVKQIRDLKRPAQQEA
As to the kind of experiment: LKB1 autophosphorylation and phosphorylation of MBP after co-expression with STRAD and MO25 isoforms in 293 cells. Type of experiment: biochemical. The note with it: GST-LKB1 co-expressed with STRAD and MO25 isoforms in 293 cells. Here is the method: FIG. 9. Activation of LKB1 by association with STRAD and MO25 Isoforms. 293 cells were transfected with constructs encoding GST-LKB1 in the presence or absence of constructs encoding the indicated isoforms of STRAD and MO25. 36 h post-transfection, GST-LKB1 was affinity purified and assayed for autophosphorylation and transphosphorylation of MBP as described in the materials and methods. The reactions were electrophoresed and the gel autoradiographed (top panel). Phosphorylation of MBP by LKB1 at Thr65 was also monitored by immunoblotting with a phosphospecific antibody (T65-P), which recognises MBP phosphorylated by LKB1 at this residue. Each reaction was also immunoblotted with the appropriate epitope tag antibodies to monitor levels of LKB1, STRAD and MO25 isoforms. Similar results were obtained in 3 separate experiments.
LKB1 autophosphorylation and phosphorylation of MBP. […] After incubation for 40 min at 30° C., the reactions were terminated by the addition of 8 μl of sample Buffer. 30 μl was electrophoresed on SDS-polyacrylamide gels, which were then dried and analysed by autoradiography to quantify LKB1 autophosphorylation, MBP and STRADα phosphorylation. 5 μl of each reaction was diluted in 45 μl of 1× SDS Sample Buffer. […]

B1: STRADα: STE20-related pseudokinase (STe20-Related ADaptor protein-α) that binds and activates LKB1 (protein, UniProt Q7RTN6 1-431, looked up)
STE20-related kinase adapter …: T1 sequence (Q7RTN6 1-431 partner)
As to B1, the “increase in LKB1 activity relative to LKB1 expressed alone” value was 4 fold.
